Among the data in PMC7591920 (2020) are Kd values, retold here.

Broadly, the Kd is the constant that tells how readily two partners part at equilibrium. A lower Kd goes with a tighter complex.

One assay has as its target T1, GST-hTEAD1(209–426) (human, UniProt P28347 209-426).
T1 chain: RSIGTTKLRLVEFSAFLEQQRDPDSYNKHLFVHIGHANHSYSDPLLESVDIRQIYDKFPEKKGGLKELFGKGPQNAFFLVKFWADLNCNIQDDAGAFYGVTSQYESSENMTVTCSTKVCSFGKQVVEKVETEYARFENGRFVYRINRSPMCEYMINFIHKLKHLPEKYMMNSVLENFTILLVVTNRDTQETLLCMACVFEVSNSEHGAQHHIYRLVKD
Kind of assay: SPR.

Assay [1] addresses T2, mouse TEAD4(210–427), as purified (SPR) (mouse, UniProt Q62296 210-427).
T2 chain: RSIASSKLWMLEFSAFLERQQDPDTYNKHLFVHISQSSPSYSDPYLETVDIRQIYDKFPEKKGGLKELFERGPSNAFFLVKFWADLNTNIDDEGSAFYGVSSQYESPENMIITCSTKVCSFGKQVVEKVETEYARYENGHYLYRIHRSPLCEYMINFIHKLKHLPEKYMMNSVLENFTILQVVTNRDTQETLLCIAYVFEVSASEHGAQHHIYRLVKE
Kind of assay: SPR. For orientation: Surface plasmon resonance follows binding to a sensor surface in real time, without labels.

Bridge positions count the residues as written; N and C are the ends. Ends that are not written are not given here.

As for SVEDHFAKALGDTWLQIKAA (lactam (positions not given here); not fully specified (bridges)) [macrocyclic two-helix motif peptide 4D (lactam 235–250, seven-atom crosslink)], the values for the Kd (in the assay with GST-hTEAD1(209–426); in assay [1]) were 1.5 µM and 1 µM, respectively.

As for SVDDHFAKALGDTWLQIKAA (lactam 3-18) [macrocyclic two-helix motif peptide 4C (lactam 235–250, seven-atom crosslink)], the Kd with GST-hTEAD1(209–426) was found to be 4.8 µM; in assay [1], 3.2 µM.

B1: macrocyclic two-helix motif peptide 4B (lactam 235–250, 6 crosslinking atoms) (peptide)
chain: SVDDHFAKALGDTWLQIKAA
modifications: lactam (positions not given here); not fully specified (bridges); also: lactam crosslink of 6 atoms, residue identities at the bridge ends not given here
For B1, the Kd in the assay with GST-hTEAD1(209–426) was found to be 14 µM; in assay [1], 11 µM.

B2: macrocyclic two-helix motif peptide 4A (lactam 235–250, 5 crosslinking atoms) (peptide)
chain: SVDDHFAKALGDTWLQIKAA
modifications: lactam (positions not given here); not fully specified (bridges); also: lactam crosslink of 5 atoms, residue identities at the bridge ends not given here
As for B2, the Kd with GST-hTEAD1(209–426) is 15 µM; in assay [1] it was 11 µM.
